{"source": "patent US20130295073A1", "about": "“Use of pegylated recombinant human arginase for treatment of leukemia” (Bio-Cancer Treatment International Ltd., priority 2010, published 2013)", "molecules": {"B1": {"name": "BCT-100: pegylated recombinant human arginase; pegylating agent may be mPEG-SPA; preparation disclosed in U.S. Ser. No. 10/518,223 (protein, UniProt P05089 1-322, looked up)", "Arginase-1": "MSAKSRTIGIIGAPFSKGQPRGGVEEGPTVLRKAGLLEKLKEQECDVKDYGDLPFADIPNDSPFQIVKNPRSVGKASEQLAGKVAEVKKNGRISLVLGGDHSLAIGSISGHARVHPDLGVIWVDAHTDINTPLTTTSGNLHGQPVSFLLKELKGKIPDVPGFSWVTPCISAKDIVYIGLRDVDPGEHYILKTLGIKYFSMTEVDRLGIGKVMEETLSYLLGRKKRPIHLSFDVDGLDPSFTPATGTPVVGGLTYREGLYITEEIYKTGLLSGLDIMEVNPSLGKTPEEVTRTVNTAVAITLACFGLAREGNHKPIDYLNPPK", "modifications": "PEGylated (mPEG-SPA)"}}, "key": {"[1]": {"tested_on": "Kasumi-1a, ML2, HL60, K562, NB4, ALL-SIL and Jurkat", "assay": "Combination effect of BCT-100 with Doxorubicin on leukemia cell lines", "format": "cell-based", "details": "FIG. 7", "from_the_text": "The combination effect of BCT-100 with Doxorubicin on various leukemia cell lines was studied. The leukemia cell lines tested were myeloid leukemia cell lines Kasumi-1a, ML2, HL60, K562, NB4 and lymphocytic leukemia cell lines ALL-SIL and Jurkat."}, "[2]": {"tested_on": "HL60 cells", "assay": "Liver, spleen and sternum cytology of HL60-inoculated mice", "format": "in vivo", "details": "HL60-inoculated NOD/SCIDS mice; BCT-100 50 U/mice i.p. weekly for 4 weeks; doxorubicin 3 mg/kg/day i.p.; FIG. 8", "protocol": "(§1) HL60 cells were injected to the tail of NOD/SCIDS mice. Treatment commenced on day 14. The animals were divided into 4 groups. The Doxorubicin group received treatment by doxorubicin, which was administrated at 3 mg/kg/day by intraperitoneal injection 3 times weekly for the first week, thereafter once per week for 4 weeks. The BCT-100 group received treatment by BCT-100, which was administrated at 50 U/mice by intraperitoneal injection weekly for 4 weeks. The combinational group received treatment of both Doxorubicin and BCT-100, administrated as described above. The control group received intraperitoneal injection of saline. […] In the control group, infiltration of leukemia in liver, spleen and sternum was observed."}, "[3]": {"assay": "Arginine depletion in preclinical study", "from_the_text": "Arginase is a manganese-containing enzyme, catalyzing the conversion of arginine to ornithine and urea, the last step of the Urea Cycle."}, "[4]": {"tested_on": "T-cell acute lymphocytic leukemia, acute myeloid leukemia, hepatocellular carcinoma and pancreatic cancer cell lines", "assay": "IC50 of BCT-100 in various cancer cell lines", "format": "cell-based", "details": "FIG. 6", "from_the_text": "The IC50 values of BCT-100 in various cancer cell lines were investigated. The cancer cell lines being tested were T-cell acute lymphocytic leukemia, acute myeloid leukemia, hepatocellular carcinoma and pancreatic cancer."}, "[5]": {"tested_on": "UF1", "assay": "Induction of apoptosis in leukemia cells", "format": "cell-based", "details": "UF1, arsenic resistant; FIG. 2", "protocol": "(§2) The effect of BCT-100 in inducing apoptosis in both arsenic sensitive (NB4 and U937) and arsenic resistant (HL60 and UF1) leukemia cell lines was tested. […] However, the apoptosis rate was low in HL60 and UF1 cells in the presence of arsenic, as these cell lines are arsenic resistant."}, "[6]": {"tested_on": "U937", "assay": "Induction of apoptosis in leukemia cells", "format": "cell-based", "details": "U937, arsenic sensitive; FIG. 2", "protocol": "as §2"}, "[7]": {"tested_on": "NB4", "assay": "Induction of apoptosis in leukemia cells", "format": "cell-based", "details": "NB4, arsenic sensitive; FIG. 2", "protocol": "as §2"}, "[8]": {"tested_on": "HL60", "assay": "Induction of apoptosis in leukemia cells", "format": "cell-based", "details": "HL60, arsenic resistant; FIG. 2", "protocol": "as §2"}, "[9]": {"tested_on": "HL60 cells", "assay": "Reorganization of promyelocytic leukemia nuclear bodies (immunostaining)", "format": "cell-based", "details": "HL60, anti-promyelocytic leukemia immunostaining, vs DMSO control; FIG. 5"}, "[10]": {"tested_on": "pmTOR", "assay": "Western blot of pmTOR expression in HL60", "format": "cell-based", "details": "FIG. 3", "protocol": "(§3) Expression of Bax and pmTOR was assessed in leukemic cell line HL60 by western blotting with or without BCT-100 treatment using monoclonal antibodies against Bax and pmTOR respectively. The same blot was stripped and probed with anti-actin antibody for loading control. Apoptosis was determined by annexin V labeling. HL60 cells were cultured in medium with or without BCT-100 and the expression of annexin V were analyzed by flow-cytometry at 8, 16, 24, and 36 hrs after BCT-100 treatment."}, "[11]": {"tested_on": "UF1", "assay": "Cell viability in myelocytic leukemia cells", "format": "cell-based", "details": "UF1, arsenic resistant; FIG. 1a/1b", "from_the_text": "(§4) The effect of BCT-100 on arsenic sensitive myelocytic cell lines (NB4 and U937) as well as arsenic resistant myelocytic cell lines (HL60 and UF1) was investigated.\n(§5) Both the arsenic sensitive and resistant leukemia cells responded to the BCT-100 treatment."}, "[12]": {"tested_on": "U937", "assay": "Cell viability in myelocytic leukemia cells", "format": "cell-based", "details": "U937, arsenic sensitive; FIG. 1a/1b", "from_the_text": "as §4, §5"}, "[13]": {"tested_on": "NB4", "assay": "Cell viability in myelocytic leukemia cells", "format": "cell-based", "details": "NB4, arsenic sensitive; FIG. 1a/1b", "from_the_text": "as §4, §5"}, "[14]": {"tested_on": "HL60", "assay": "Cell viability in myelocytic leukemia cells", "format": "cell-based", "details": "HL60, arsenic resistant; FIG. 1a/1b", "from_the_text": "as §4, §5"}, "[15]": {"tested_on": "Bax", "assay": "Western blot of Bax expression in HL60", "format": "cell-based", "details": "8 hrs after treatment and afterwards, FIG. 3", "protocol": "as §3"}, "[16]": {"tested_on": "HL-60", "assay": "Survival of HL60-inoculated mice", "format": "in vivo", "details": "HL-60-inoculated NOD/SCIDS mice; FIG. 9", "protocol": "as §1\nThe effect of BCT-100 on the survival rate of HL-60-incoluated NOD/SCIDS mice was investigated. […] Thus BCT-100 can be administrated with Doxorubicin to treat leukemia, e.g., myeloid leukemia."}, "[17]": {"tested_on": "NB4 cells", "assay": "Granulocytic differentiation (CD11b expression, FACS)", "format": "cell-based", "details": "NB4, within 96-hour treatment; FIG. 4a, 4b", "from_the_text": "(§6) The induction of granulocytic differentiation in NB4 and HL60 cells was studied. […] Specifically, decrease in nuclear to cytoplasmic ratio, appearance of cytoplasmic granules, chromatin condensation and loss of nucleoli were observed."}, "[18]": {"tested_on": "HL60 cells", "assay": "Granulocytic differentiation (CD11b expression, FACS)", "format": "cell-based", "details": "HL60, within 96-hour treatment; FIG. 4b", "from_the_text": "as §6"}, "[19]": {"tested_on": "TALL-1", "assay": "IC50 of BCT-100 in leukemia cell lines", "format": "cell-based", "details": "TALL-1, T-cell leukemia", "from_the_text": "(§7) The inhibitory effect of BCT-100 in acute myeloid leukemia cells (Kasumi-1a, ML2, HL60, K562 and NB4) and T-cell leukemia cells (Jurkat, ALL-SIL, HPB-ALL and TALL-1) was studied."}, "[20]": {"tested_on": "Kasumi-1a", "assay": "IC50 of BCT-100 in leukemia cell lines", "format": "cell-based", "details": "myeloid leukemia", "from_the_text": "as §7"}, "[21]": {"tested_on": "NB4", "assay": "IC50 of BCT-100 in leukemia cell lines", "format": "cell-based", "details": "NB4, myeloid leukemia", "from_the_text": "as §7"}, "[22]": {"tested_on": "HPB-ALL", "assay": "IC50 of BCT-100 in leukemia cell lines", "format": "cell-based", "details": "T-cell leukemia", "from_the_text": "as §7"}, "[23]": {"tested_on": "Jurkat", "assay": "IC50 of BCT-100 in leukemia cell lines", "format": "cell-based", "details": "T-cell leukemia", "from_the_text": "as §7"}, "[24]": {"tested_on": "All-SIL", "assay": "IC50 of BCT-100 in leukemia cell lines", "format": "cell-based", "details": "T-cell leukemia", "from_the_text": "as §7"}, "[25]": {"tested_on": "ML2", "assay": "IC50 of BCT-100 in leukemia cell lines", "format": "cell-based", "details": "ML2, myeloid leukemia", "from_the_text": "as §7"}, "[26]": {"tested_on": "K562", "assay": "IC50 of BCT-100 in leukemia cell lines", "format": "cell-based", "details": "K562, myeloid leukemia", "from_the_text": "as §7"}, "[27]": {"tested_on": "HL60", "assay": "IC50 of BCT-100 in leukemia cell lines", "format": "cell-based", "details": "HL60, myeloid leukemia", "from_the_text": "as §7"}}, "data": [{"molecule": "COc1cccc2c1C(=O)c1c(O)c3c(c(O)c1C2=O)C[C@@](O)(C(=O)CO)C[C@@H]3O[C@H]1C[C@H](N)[C@H](O)[C@H](C)O1", "note": "[Doxorubicin, reference compound]", "values": [{"measurement": "therapeutic effect on leukemia cell lines", "setting": "[1]", "value": "effective in treating leukemia"}, {"measurement": "infiltration of leukemia in liver, spleen and sternum (cytology)", "setting": "[2]", "value": "Modest infiltration"}]}, {"molecule": "B1", "values": [{"measurement": "arginine depletion", "setting": "[3]", "value": "efficacious in inducing arginine depletion in dose-dependent manner"}, {"measurement": "effectiveness in cancer cell lines", "setting": "[4]; T-cell acute lymphocytic leukemia, acute myeloid leukemia, hepatocellular carcinoma and pancreatic cancer", "value": "effective"}, {"measurement": "times more potent in leukemia and pancreatic cancer than in hepatocellular carcinoma", "setting": "[4]; from IC50 values", "value": "6-10 times"}, {"measurement": "apoptosis rate", "setting": "[5]", "value": "effective in inducing apoptosis"}, {"measurement": "apoptosis rate", "setting": "[6]", "value": "effective in inducing apoptosis"}, {"measurement": "apoptosis rate", "setting": "[7]", "value": "effective in inducing apoptosis"}, {"measurement": "apoptosis rate", "setting": "[8]", "value": "effective in inducing apoptosis"}, {"measurement": "pattern of promyelocytic leukemia nuclear bodies", "setting": "[9]", "value": "the microspeckled pattern disappeared and the size and brightness of the promyelocytic leukemia bodies returned to normal"}, {"measurement": "therapeutic effect on leukemia cell lines", "setting": "[1]", "value": "effective in treating leukemia"}, {"measurement": "protein level of pmTOR", "setting": "[10]", "value": "down-regulated"}, {"measurement": "cell viability", "setting": "[11]", "value": "dropped with increasing amount of BCT-100"}, {"measurement": "cell viability", "setting": "[12]", "value": "dropped with increasing amount of BCT-100"}, {"measurement": "cell viability", "setting": "[13]", "value": "dropped with increasing amount of BCT-100"}, {"measurement": "cell viability", "setting": "[14]", "value": "dropped with increasing amount of BCT-100"}, {"measurement": "Bax level", "setting": "[15]", "value": "up-regulated"}, {"measurement": "survival rate and survival days", "setting": "[16]", "value": "increased as compared to the control group"}, {"measurement": "granulocytic differentiation", "setting": "[17]", "value": "induced granulocytic differentiation"}, {"measurement": "granulocytic differentiation", "setting": "[18]", "value": "induced granulocytic differentiation"}, {"measurement": "IC50", "setting": "[19]", "value": 100, "unit": "mU/mL"}, {"measurement": "IC50", "setting": "[20]", "value": 65, "unit": "mU/mL"}, {"measurement": "IC50", "setting": "[21]", "value": 60, "unit": "mU/mL"}, {"measurement": "IC50", "setting": "[22]", "value": 110, "unit": "mU/mL"}, {"measurement": "IC50", "setting": "[23]", "value": 40, "unit": "mU/mL"}, {"measurement": "IC50", "setting": "[24]", "value": 120, "unit": "mU/mL"}, {"measurement": "IC50", "setting": "[25]", "value": 65, "unit": "mU/mL"}, {"measurement": "IC50", "setting": "[26]", "value": 25, "unit": "mU/mL"}, {"measurement": "IC50", "setting": "[27]", "value": 55, "unit": "mU/mL"}, {"measurement": "infiltration of leukemia in liver, spleen and sternum (cytology)", "setting": "[2]", "value": "Modest infiltration"}]}]}
